Measurements from PMC3307221 (Analytical Chemistry, 2012).

Molecular target: protective antigen of anthrax (Bacillus anthracis, strain , UniProt P13423)
Experiment: SPR

protective antigen of anthrax, sequence (P13423 whole entry, looked up): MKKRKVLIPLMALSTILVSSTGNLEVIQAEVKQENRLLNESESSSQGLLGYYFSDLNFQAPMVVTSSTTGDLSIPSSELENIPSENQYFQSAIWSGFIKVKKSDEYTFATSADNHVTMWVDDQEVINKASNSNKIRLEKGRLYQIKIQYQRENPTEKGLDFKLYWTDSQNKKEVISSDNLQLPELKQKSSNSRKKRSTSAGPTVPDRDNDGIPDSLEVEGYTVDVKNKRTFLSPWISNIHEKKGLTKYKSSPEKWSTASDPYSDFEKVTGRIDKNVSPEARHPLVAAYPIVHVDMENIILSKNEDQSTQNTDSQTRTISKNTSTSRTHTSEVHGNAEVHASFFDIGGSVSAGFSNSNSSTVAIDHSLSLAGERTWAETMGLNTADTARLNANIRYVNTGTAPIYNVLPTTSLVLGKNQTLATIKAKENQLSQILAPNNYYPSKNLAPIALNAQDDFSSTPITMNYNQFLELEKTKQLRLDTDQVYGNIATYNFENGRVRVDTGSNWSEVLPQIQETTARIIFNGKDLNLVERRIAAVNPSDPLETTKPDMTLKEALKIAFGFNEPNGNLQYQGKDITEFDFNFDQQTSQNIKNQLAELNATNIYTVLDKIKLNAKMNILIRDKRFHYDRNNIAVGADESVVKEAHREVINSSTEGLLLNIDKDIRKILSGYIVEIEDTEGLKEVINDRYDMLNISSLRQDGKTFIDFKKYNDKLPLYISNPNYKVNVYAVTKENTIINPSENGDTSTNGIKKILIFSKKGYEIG

B1: M18 scFv (scFv, V domains shown)
VH: EVQLQQSGPELVKPGASVKISCKDSGYAFNSSWMNWVKQRPGQGLEWIGRIYPGDGDSNYNGKFEGKAILTADKSSSTAYMQLSSLTSVDSAVYFCARSGLLRYAMDYWGQGTSVTVSS
VL: DIQMTQTTSSLSASLGDRVTVSCRASQDIRNYLNWYQQKPDGTVKFLIYYTSRLQPGVPSRFSGSGSGTDYSLTINNLEQEDIGTYFCQQGNTPPWTFGGGTKLEIK
With B1 the koff was 0.00011 s⁻¹ and the kon was 597000 M⁻¹ s⁻¹.
